Source: PMC8730730
pKd: −log10 of the molar value.

Target: enzymatically deglycosylated clinical-grade rshACE2 (human) (UniProt Q9BYF1)
Test: BLI

Sequence of UniProt Q9BYF1 (Q9BYF1 18-740 limits assumed): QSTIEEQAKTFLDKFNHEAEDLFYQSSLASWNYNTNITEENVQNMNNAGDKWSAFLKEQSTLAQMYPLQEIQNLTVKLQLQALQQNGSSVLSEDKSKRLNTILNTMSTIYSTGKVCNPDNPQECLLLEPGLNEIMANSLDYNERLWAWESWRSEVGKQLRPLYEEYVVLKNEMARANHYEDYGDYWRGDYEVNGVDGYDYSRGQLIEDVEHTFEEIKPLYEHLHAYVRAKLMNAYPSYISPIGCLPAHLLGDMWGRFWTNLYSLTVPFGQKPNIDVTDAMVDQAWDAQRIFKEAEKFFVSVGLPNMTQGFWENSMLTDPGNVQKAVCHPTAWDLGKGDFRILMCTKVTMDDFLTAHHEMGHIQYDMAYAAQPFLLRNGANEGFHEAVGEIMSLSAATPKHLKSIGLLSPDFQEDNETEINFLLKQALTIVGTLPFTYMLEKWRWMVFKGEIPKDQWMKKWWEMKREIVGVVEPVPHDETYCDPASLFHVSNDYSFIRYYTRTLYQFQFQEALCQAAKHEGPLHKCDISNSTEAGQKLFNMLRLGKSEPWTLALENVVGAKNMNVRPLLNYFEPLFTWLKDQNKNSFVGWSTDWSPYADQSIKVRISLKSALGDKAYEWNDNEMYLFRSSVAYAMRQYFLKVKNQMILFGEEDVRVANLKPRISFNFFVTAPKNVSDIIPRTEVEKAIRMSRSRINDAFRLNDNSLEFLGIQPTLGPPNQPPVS

With “SARS-CoV-2 Spike receptor binding domain (residues R319-F541) (from UniProt P0DTC2 319-541) (domain or fragment)” the pKd was 8.29.
